For assay [1], the target named is T1, human Bcl-2 mutant mI-3 (alanine for the glycine in the WGR sequence of domain I) (human, UniProt P10415 1-239).
T1 construct: also called mI 3-4; mI3-4
In words: immunoprecipitation of human Bcl-2 from double transfected FL5.12 cells, Western blot with anti-mouse Bcl-2 antibody (FIG. 21). An excerpt: (§1) Immunoprecipitates were washed (unless indicated otherwise) once in lysis buffer followed by a wash in lysis buffer without NP-40. Immunoprecipitates were solubilized with SDS-PAGE sample buffer and electrophoresed through 12.5% SDS-polyacrylamide gels. Gels containing (³⁵ S)methionine labeled proteins were fixed with 10% glacial acetic acid and 30% methanol overnight, enhanced by impregnating with a commercial fluorography enhancing solution (Enhance by DuPont) for 60′, and […] in water for 30′. Gels were then dried and autoradiography performed at−70° C.
(§2) For immunoblots, proteins were electrotransferred overnight at 4° C. on nitrocellulose membranes. Filters were blocked for 2 hours with phosphate-buffered saline containing 3% non-fat milk. All additional immunostaining steps were performed in phosphate-buffered saline with 0.05% Tween-20 (PBS-Tween) at room temperature. Filters were incubated with primary antibody for 2 hours. Species specific biotinylated secondary antibodies (1:300) were also reacted for 2 hours. Immunoblots were reacted with horseradish-peroxidase-Streptavidin (1:1000) for 1 hour. Filters were washed in PBX-Tween 4 times for 5′ between each step and were developed with […] (BioRad) enhanced with nickel chloride (0.03%).
(§3) In FIG. 21 cells are created that bear two expression constructs. The Dα15 cell line is an FL5.12 bearing human Bcl-2 wild-type and mouse Bcl-2 wild-type vector. The DN2 bears a control Neomycin resistant expression vector and mouse Bcl-2 wild-type vector. The clone DSM4-5 contains mutant Bcl-2 of domain I and a mouse Bcl-2 wild-type whereas the DSM-4 contains another Bcl-2 mutant of human origin with mouse Bcl-2 wild-type. […] In FIG. 21B we see a primary immunoprecipitation of either wild-type human Bcl-2 or the mutated human Bcl-2 in which the 3-4 and 4-7 mutants have no associated Bax. Those immunoprecipitations are then developed by Western blot analysis with an anti-mouse Bcl-2 antibody. Both the wild-type human Bcl-2 as well as the two mutants mI 3-4 and mI 4-7 both associate with the wild-type mouse Bcl-2.
On the technique in general: A western blot detects proteins with antibodies after separation by electrophoresis.

Assay [2] has as its target T2, human Bcl-2 mutant mI-4 (glutamic acid for the glycine in the WGR sequence of domain I) (human, UniProt P10415 1-239).
T2 construct: also called mI 4-7; mI4-7
The assay is described as above.
Description: as §1, §2, §3

A further assay concerns the target T3, wild type human Bcl-2 (human, UniProt P10415 1-239).
T3 construct: also called hBcl-2; human Bcl-2 wild-type
The description is as above.
Description: as §1, §2, §3

In assay [3] the target is T1, human Bcl-2 mutant mI-3 (alanine for …). In words: immunoprecipitation of radiolabeled FL5.12 and 2B4 stable transfectants (FIG. 18). Here is the method:
(§4) Prior to metabolic labeling, cells were washed once in prewarmed, serum-free, methionine-free Dulbecco's medium. Cells were resuspended at 3-5×10⁶ cells/ml in methionine-free Dulbecco's medium supplemented with 10% dialyzed FCS and either 5% complete medium or 5% WEHI 3B supernatant. Metabolic labeling was performed with 40 μCi/ml of ³⁵S)methionine, (³⁵S)cysteine for 9-12 hours before lysis. All steps of the immunoprecipitation were carried out on ice or in the cold room. Cells were washed twice with cold phosphate-buffered saline and lysed in an NP-40 isotonic lysis buffer with freshly added protease inhibitors (142.5 mM KCl, 5 mM MgCl₂, 10 mM HEPES pH:7.2, 1 mM EGTA, 0.2% NP-40, 0.2 mM phenylmethylsulfonyl fluoride, 0.1% Aprotinin, 0.7 μg/ml Pepstatin and 1 μg/ml Leupeptin) by nutation for 30′. Nuclei and unlysed cellular debris were removed by centrifugation at […] for 10′. Lysates were precleared with 10% v/v Protein A-Sepharose (Prot.A-S) for 30′ which was removed by centrifugation at 400×g for 2′. In experiments, the lysates were also mixed with 10× excess cold cells lysates for 15′ prior to the addition of the antibody. Specific antibodies were added for 90′ and immunoprecipitates were captured with 10% v/v Prot.A-S for 60′. […]

In assay [4] the target is T2, human Bcl-2 mutant mI-4 (glutamic acid …). Described as above. Here is the method: as §4

B1: murine Bcl-2 (wild type) (other, UniProt P10417 1-236, looked up)
chain: MAQAGRTGYDNREIVMKYIHYKLSQRGYEWDAGDADAAPLGAAPTPGIFSFQPESNPMPAVHRDMAARTSPLRPLVATAGPALSPVPPVVHLTLRRAGDDFSRRYRRDFAEMSSQLHLTPFTARGRFATVVEELFRDGVNWGRIVAFFEFGGVMCVESVNREMSPLVDNIALWMTEYLNRHLHTWIQDNGGWDAFVELYGPSMRPLFDFSWLSLKTLLSLALVGACITLGAYLGHK
notes: also called endogenous murine Bcl-2; mouse Bcl-2 wild-type
As for B1, the binding result (in assay [1]; in assay [2]; with wild type human Bcl-2) was “binds” throughout.

B2: murine Bax (endogenous p21 of FL5.12 cells, Bax alpha) (other)
chain: MDGSGEQLGSGGPTSSEQIMKTGAFLLQGFIQDRAGRMAGETPELTLEQPPQDASTKKLSECLRRIGDELDSNMELQRMIADVDRDSPREVFFRVAADMFADGNFNTGRVVALFYFASKLVLKALCTKVPELIRTIMGWTLDFLRERLLGWIQDQGGWEGLLSYFGTPTWQTVTIFVAGVLTASLTIWKKMG
notes: also called murine p21 protein; mouse p21
For B2, the binding result in assay [3] and in assay [4] was “no binding” in each case.

(Values after patent US20030096367A1 (WASHINGTON UNIVERSITY, published 2003).)
